The supplement of paper PMC9170038

system: MS2 coat protein; test: apparent KD of MS2 coat protein; higher = weaker reporter binding; details: Eterna round: R107; input ligand: arginine 13.2 mM
Summary of the method: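 Designed RNA switches were made by on-chip transcription from Illumina sequencing clusters and then titrated with SNAP-549-labelled MS2 coat protein. Twofold steps ran from 0.7 or 1.5 nM to 3 µM, each lasting 0.8–1.5 h early and 10–20 min late, in 100 mM Tris-HCl pH 7.5, 80 mM KCl, 4 mM MgCl2, without or with constant ligand. Apparent KD is the per-design median of normalised cluster binding-curve fits.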

Sequence	apparent KD of MS2 coat protein
AGUACUCGAACGGAUACCAGCCGGACAUGAGGAUCACCCAUGUCCUACCUCUGUUCGGUUGGCCCUUGGCAGCCGUUCGUGUACA [Omei Theo B SS A v7]	41.4 nM

same assay, conditions: Eterna round: R107; input ligand: none

Sequence	apparent KD of MS2 coat protein
ACAUGAGGAUCACCCAUGUAUUCAUCAGAAGGAGCGUGGAAUAACACAGGUAGGUCGCUGAUUAUUUGUUAAAUAAAUUCGUGUA [JR_Nu_SSArginiA_Sub023]	16.1 nM
AGAGUUAGACAAAAGUCUAGCUCACCAGAAGGAGCGUCCGAAAGGACAGGUAGGUCGCUGGUGCAUGAGGAUCACCCAUGUUCCU [ArgAS 20 #OpenEnded #AlternativeMS2]	115 nM
AAUAUAUAUCACGAACUGUGGUGUAUGUUGCGAGGACCGGUACGGCCGCCACUCGGCCGGUGGUACAUGAGGAUCACCCAUGUUG [XTryp A #9]	25.3 nM
CUCAUCCACGCGGCCGCCACUAUAUUGUGGUGUGAAUGUGACGUAUUACAAGAGGAUCACCCUUGUAGGACCGGGCGUGGAUGAG [Tryp B Ex Mod1]	20.3 nM
AGGACGGUCGGAAGGAGCGGUACAUGAGGAUCACCCAUGUACCUCUGGGCAUCCGUAGUGUGCCAGGUAGGUCGCCGAUUGCGGG [Lareerra]	12 nM
GCUAGGUCUACGGCCGCCACUAGACGUGGGUAAGACAUGAGGAUCACCCAUGUACUACGGGCGAUUAGGACCGGGUAGACCUAGC [SSTB NP+V+V2 #16 Same Structure]	309 nM
GGGCCCGGGCGCGAGCCCGGGCCCAUUGAUACCAGUGAAAAUAUACGCCCUUGGCAGCGAAUCCUAACAUGAGGAUCACCCAUGU [5.A]	37.2 nM
AGUCUUAUAGGAAGGAGCGCAAUCAUAACAUGAGGAUCACCCAUGUCGAGGUGAGGGUCAUUGCAGGUAGGUCGCCUAACUAAGA [Same State - Arginine B (Freestyle 8)]	281 nM
UGACGAGGCCUGGAUACCAGCGACAUGAGGAUCACCCAUGUAUGAGGAUCAGCCAUGUUAUGCCCUUGGCAGCCACGAAGGUCAG [WQQMULLIN]	25.4 nM
UGUAUGGACUGAAGGAGCGGGUAAUAAACCUGAGGAUCACCCAGGUAAUAGGCGAAAGCCGCCCAGGUAGGUCGCAGUCCAUACU	13.5 nM
ACAUGAGGAUCACCCAUGUACAUGAGGGAAGGAGCGGUACAUGAGCCAGGUAGGUCGCCCAUGAGCAUCAGGCAUGUACAUCAGC [kokmmullin]	99.5 nM
GCCAGUCAUAGCAGGGCAAAUAUACUCGAAGGAGCGUCAUAGUAGGCAGGUAGGUCGCGAGACAUGAGGAUCACCCAUGUAGAGA [fffmullin]	47.4 nM
GGCCCGGACUUGGAAUGGGUGUUUCCUUCACGAGGACCGGUACGGCCGCCACUCGAAGACAUGAGGAUCACCCAUGUAGUCGACC [Soleti]	21.7 nM
GGGCAAGAGGGAAGGAGCGUCGGCUGGGUAACAUGAGGAUCACCCAUGUAGCACAUGGUGUGGCAGGUAGGUCGCCCUCUGCCCU [SS-ArgB9]	102 nM
AUACAUGAGGAUCACCCAUGUCACACAGAAGGAGCGGCUGUAGAGCCAGGUAGGUCGCUGUACUGAAAAUACUUCAUACUCAUGU [#30 Exclusion - Arginine A]	59.6 nM
AGAUUUAUUUUGACCGGGCUCAUUCCUGAAGGAGCGCAGAACAAUGCAGGUAGGUCGCAGGACAUGAGGAUCACCCAUGUCAAGC [Isaes]	20.7 nM
GGUGGCGGGACUGAUACCAGCCACCACCGAUAGACCACAUGAGGAUCACCCAUGUUGGGUGGCCCUUGGCAGCAGUCUUGCGUCG [#1 Same State - Theophylline B Attempt #16 (HarryS)]	149 nM

same assay, conditions: Eterna round: R107; input ligand: theophylline 20 uM

Sequence	apparent KD of MS2 coat protein
ACAUGAGGAUCACCCAUGUAUUCAUCAGAAGGAGCGUGGAAUAACACAGGUAGGUCGCUGAUUAUUUGUUAAAUAAAUUCGUGUA [JR_Nu_SSArginiA_Sub023]	19.1 nM
UAUAUAUAUAGGGAUACCAGCAGAGAAAACGUUUAUCCUAACAUGAGGAUCACCCAUGUAUGCCCUUGGCAGCUUUAUAUAUAUA [8.F]	27.6 nM
AGAGUUAGACAAAAGUCUAGCUCACCAGAAGGAGCGUCCGAAAGGACAGGUAGGUCGCUGGUGCAUGAGGAUCACCCAUGUUCCU [ArgAS 20 #OpenEnded #AlternativeMS2]	211 nM
AAUAUAUAUCACGAACUGUGGUGUAUGUUGCGAGGACCGGUACGGCCGCCACUCGGCCGGUGGUACAUGAGGAUCACCCAUGUUG [XTryp A #9]	48.7 nM
CUCAUCCACGCGGCCGCCACUAUAUUGUGGUGUGAAUGUGACGUAUUACAAGAGGAUCACCCUUGUAGGACCGGGCGUGGAUGAG [Tryp B Ex Mod1]	28.4 nM
ACGUCUCGAAAACUCGUAGUAACUAUAGAUACCAGUAGCGAGAGUUACCCUUGGCAGCUACAUGAGGAUCACCCAUGUACGAGGA [XTheo A #28]	20.9 nM
CACGAAAGAUCGGCCGCCACUAACCUGUGUGUACUAGCACAUGAGGAUCACCCAUGUUCUUGCGUUAGGACCGGGAUUGAGCGUG [#04 Exclusion Tryptophan B]	30.7 nM
AUCGUACCUGAUGAUACCAGCAUGUGCUCGUAACAUGAGGAUCACCCAUGUGAUCAGUAAUGCCCUUGGCAGCAUGAUCGGUACA [Same State - Theophylline B (Freestyle 17)]	46.9 nM
UGACAGAUAACCGCUGGUGCUCUCGAGUUGCGAGGACCGGUACGGCCGCCACUCGACAACAUGAGGAUCACCCAUGUUGCGGGUC [Lareara]	108 nM
AGGACGGUCGGAAGGAGCGGUACAUGAGGAUCACCCAUGUACCUCUGGGCAUCCGUAGUGUGCCAGGUAGGUCGCCGAUUGCGGG [Lareerra]	19.5 nM
GCUAGGUCUACGGCCGCCACUAGACGUGGGUAAGACAUGAGGAUCACCCAUGUACUACGGGCGAUUAGGACCGGGUAGACCUAGC [SSTB NP+V+V2 #16 Same Structure]	527 nM
GUACCGUAAACGGCCGCCACUGACAUGAGGAUCACCCAUGUGCUGGUGGUGCACAACCUCAGGUUCAGGACCGGGUUUCCGAGCU [theeternabot_exclusion_MS2_Trp_B_50]	45.3 nM
GGGCCCGGGCGCGAGCCCGGGCCCAUUGAUACCAGUGAAAAUAUACGCCCUUGGCAGCGAAUCCUAACAUGAGGAUCACCCAUGU [5.A]	65.7 nM
AUCAUCAGUUCGGCCGCCACUGUUUGGCACAGUUGUAUCGUACAUGAGGAUCACCCAUGUCACCACAGGACCGGGAACGCCGUCG [theeternabot_exclusion_MS2_Trp_B_1]	21.6 nM
AGUCUUAUAGGAAGGAGCGCAAUCAUAACAUGAGGAUCACCCAUGUCGAGGUGAGGGUCAUUGCAGGUAGGUCGCCUAACUAAGA [Same State - Arginine B (Freestyle 8)]	121 nM
CCCGUAAAGGCGGCCGCCACUGUAUGACAUGAGGAUCACCCAUGUAGGGAAAAUGCGAUGGUCGUCAGGACCGGGCCUCUGGCAU [theeternabot_exclusion_MS2_Trp_B_5]	29.3 nM
UGACGAGGCCUGGAUACCAGCGACAUGAGGAUCACCCAUGUAUGAGGAUCAGCCAUGUUAUGCCCUUGGCAGCCACGAAGGUCAG [WQQMULLIN]	38.2 nM
UGUAUGGACUGAAGGAGCGGGUAAUAAACCUGAGGAUCACCCAGGUAAUAGGCGAAAGCCGCCCAGGUAGGUCGCAGUCCAUACU	13.7 nM
GAUGAUAUUGCAGAUACCAGACACAUGAGGAUCACCCAUGUCGCUGAGUUGCUGGAUCGUGUCCCUUGGCAGCUGCGAUAUCAUC [Belgium]	38.5 nM
